Numbered stars: 1 amine (or outer) side, 2 acyl side, 3 side chain; on linkers, the order of the positions; unused ones are H or OH. Bridge positions count the residues as written; N and C are the ends. Side chains are listed from the residue outwards. Ends that are not written are not given here. * marks the point of attachment. C20 diacid = O=C(O)CCCCCCCCCCCCCCCCCCC(=O)*; γGlu = O=C(O)[C@H](CCC(=O)[*:2])N[*:1]; AEEA = NCCOCCOCC(=O)O

T1: human calcitonin receptor (human, UniProt P30988 25-474)
T1 construct: whole, on cells; also called hCTR; hCT
T1 sequence (looked up): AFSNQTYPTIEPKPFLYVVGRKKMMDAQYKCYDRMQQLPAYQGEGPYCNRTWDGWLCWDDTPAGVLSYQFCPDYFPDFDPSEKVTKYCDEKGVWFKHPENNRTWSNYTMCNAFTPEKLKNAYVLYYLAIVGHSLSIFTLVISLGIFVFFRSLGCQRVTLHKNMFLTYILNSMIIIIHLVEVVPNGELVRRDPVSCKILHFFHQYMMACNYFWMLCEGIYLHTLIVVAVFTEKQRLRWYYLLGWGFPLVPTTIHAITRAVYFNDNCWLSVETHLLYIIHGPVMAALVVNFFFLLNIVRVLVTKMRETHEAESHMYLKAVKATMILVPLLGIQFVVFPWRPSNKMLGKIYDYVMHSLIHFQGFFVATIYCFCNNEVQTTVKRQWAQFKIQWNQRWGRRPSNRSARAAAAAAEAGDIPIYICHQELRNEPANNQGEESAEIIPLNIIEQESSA

B1: N^ε1-[2-[2-[2-[[2-[2-[2-[[(4S)-4-carboxy-4-(19-carboxynonadecanoylamino)butanoyl]amino]ethoxy]ethoxy]acetyl]amino]ethoxy]ethoxy]acetyl]-[Arg17,Pro21,Pro27,Pro34 … (peptide)
peptide: K([AEEA-AEEA-γGlu-C20 diacid])CNTATCATQRLANFLRHSSPNFGAIPSSTNVGPNTY-NH2
modifications: disulfide 2-7; N-terminus assumed
SMILES: CC[C@H](C)[C@H](NC(=O)[C@H](C)NC(=O)CNC(=O)[C@H](Cc1ccccc1)NC(=O)[C@H](CC(N)=O)NC(=O)[C@@H]1CCCN1C(=O)[C@H](CO)NC(=O)[C@H](CO)NC(=O)[C@H](Cc1c[nH]cn1)NC(=O)[C@H](CCCNC(=N)N)NC(=O)[C@H](CC(C)C)NC(=O)[C@H](Cc1ccccc1)NC(=O)[C@H](CC(N)=O)NC(=O)[C@H](C)NC(=O)[C@H](CC(C)C)NC(=O)[C@H](CCCNC(=N)N)NC(=O)[C@H](CCC(N)=O)NC(=O)[C@@H](NC(=O)[C@H](C)NC(=O)[C@@H]1CSSC[C@H](NC(=O)[C@@H](N)CCCCNC(=O)COCCOCCNC(=O)COCCOCCNC(=O)CC[C@H](NC(=O)CCCCCCCCCCCCCCCCCCC(=O)O)C(=O)O)C(=O)N[C@@H](CC(N)=O)C(=O)N[C@@H]([C@@H](C)O)C(=O)N[C@@H](C)C(=O)N[C@@H]([C@@H](C)O)C(=O)N1)[C@@H](C)O)C(=O)N1CCC[C@H]1C(=O)N[C@@H](CO)C(=O)N[C@@H](CO)C(=O)N[C@H](C(=O)N[C@@H](CC(N)=O)C(=O)N[C@H](C(=O)NCC(=O)N1CCC[C@H]1C(=O)N[C@@H](CC(N)=O)C(=O)N[C@H](C(=O)N[C@@H](Cc1ccc(O)cc1)C(N)=O)[C@@H](C)O)C(C)C)[C@@H](C)O
notes: also called compound 98
B2: N^ε1-[2-[2-[2-[[(4S)-4-carboxy-4-(19-carboxynonadecanoylamino)butanoyl]amino]ethoxy]ethoxy]acetyl]-[Arg17,Pro21,Pro27,Arg34]-h-amylin (peptide)
peptide: K([AEEA-γGlu-C20 diacid])CNTATCATQRLANFLRHSSPNFGAIPSSTNVGRNTY-NH2
modifications: disulfide 2-7; N-terminus assumed
SMILES: CC[C@H](C)[C@H](NC(=O)[C@H](C)NC(=O)CNC(=O)[C@H](Cc1ccccc1)NC(=O)[C@H](CC(N)=O)NC(=O)[C@@H]1CCCN1C(=O)[C@H](CO)NC(=O)[C@H](CO)NC(=O)[C@H](Cc1c[nH]cn1)NC(=O)[C@H](CCCNC(=N)N)NC(=O)[C@H](CC(C)C)NC(=O)[C@H](Cc1ccccc1)NC(=O)[C@H](CC(N)=O)NC(=O)[C@H](C)NC(=O)[C@H](CC(C)C)NC(=O)[C@H](CCCNC(=N)N)NC(=O)[C@H](CCC(N)=O)NC(=O)[C@@H](NC(=O)[C@H](C)NC(=O)[C@@H]1CSSC[C@H](NC(=O)[C@@H](N)CCCCNC(=O)COCCOCCNC(=O)CC[C@H](NC(=O)CCCCCCCCCCCCCCCCCCC(=O)O)C(=O)O)C(=O)N[C@@H](CC(N)=O)C(=O)N[C@@H]([C@@H](C)O)C(=O)N[C@@H](C)C(=O)N[C@@H]([C@@H](C)O)C(=O)N1)[C@@H](C)O)C(=O)N1CCC[C@H]1C(=O)N[C@@H](CO)C(=O)N[C@@H](CO)C(=O)N[C@H](C(=O)N[C@@H](CC(N)=O)C(=O)N[C@H](C(=O)NCC(=O)N[C@@H](CCCNC(=N)N)C(=O)N[C@@H](CC(N)=O)C(=O)N[C@H](C(=O)N[C@@H](Cc1ccc(O)cc1)C(N)=O)[C@@H](C)O)C(C)C)[C@@H](C)O
notes: also called compound 78
B3: N^ε1-[2-[2-[2-[[(4S)-4-carboxy-4-(19-carboxynonadecanoylamino)butanoyl]amino]ethoxy]ethoxy]acetyl]-[Arg14,Arg17,Pro21,Pro27]-h-amylin (peptide)
peptide: K([AEEA-γGlu-C20 diacid])CNTATCATQRLARFLRHSSPNFGAIPSSTNVGSNTY-NH2
modifications: disulfide 2-7; N-terminus assumed
SMILES: CC[C@H](C)[C@H](NC(=O)[C@H](C)NC(=O)CNC(=O)[C@H](Cc1ccccc1)NC(=O)[C@H](CC(N)=O)NC(=O)[C@@H]1CCCN1C(=O)[C@H](CO)NC(=O)[C@H](CO)NC(=O)[C@H](Cc1c[nH]cn1)NC(=O)[C@H](CCCNC(=N)N)NC(=O)[C@H](CC(C)C)NC(=O)[C@H](Cc1ccccc1)NC(=O)[C@H](CCCNC(=N)N)NC(=O)[C@H](C)NC(=O)[C@H](CC(C)C)NC(=O)[C@H](CCCNC(=N)N)NC(=O)[C@H](CCC(N)=O)NC(=O)[C@@H](NC(=O)[C@H](C)NC(=O)[C@@H]1CSSC[C@H](NC(=O)[C@@H](N)CCCCNC(=O)COCCOCCNC(=O)CC[C@H](NC(=O)CCCCCCCCCCCCCCCCCCC(=O)O)C(=O)O)C(=O)N[C@@H](CC(N)=O)C(=O)N[C@@H]([C@@H](C)O)C(=O)N[C@@H](C)C(=O)N[C@@H]([C@@H](C)O)C(=O)N1)[C@@H](C)O)C(=O)N1CCC[C@H]1C(=O)N[C@@H](CO)C(=O)N[C@@H](CO)C(=O)N[C@H](C(=O)N[C@@H](CC(N)=O)C(=O)N[C@H](C(=O)NCC(=O)N[C@@H](CO)C(=O)N[C@@H](CC(N)=O)C(=O)N[C@H](C(=O)N[C@@H](Cc1ccc(O)cc1)C(N)=O)[C@@H](C)O)C(C)C)[C@@H](C)O
notes: also called compound 82
B4: N^ε1-[2-[2-[2-[[(4S)-4-carboxy-4-(19-carboxynonadecanoylamino)butanoyl]amino]ethoxy]ethoxy]acetyl]-[Ala14,Arg17,Pro21,Pro27,Pro31]-h-amylin (peptide)
peptide: K([AEEA-γGlu-C20 diacid])CNTATCATQRLAAFLRHSSPNFGAIPSSTPVGSNTY-NH2
modifications: disulfide 2-7; N-terminus assumed
SMILES: CC[C@H](C)[C@H](NC(=O)[C@H](C)NC(=O)CNC(=O)[C@H](Cc1ccccc1)NC(=O)[C@H](CC(N)=O)NC(=O)[C@@H]1CCCN1C(=O)[C@H](CO)NC(=O)[C@H](CO)NC(=O)[C@H](Cc1c[nH]cn1)NC(=O)[C@H](CCCNC(=N)N)NC(=O)[C@H](CC(C)C)NC(=O)[C@H](Cc1ccccc1)NC(=O)[C@H](C)NC(=O)[C@H](C)NC(=O)[C@H](CC(C)C)NC(=O)[C@H](CCCNC(=N)N)NC(=O)[C@H](CCC(N)=O)NC(=O)[C@@H](NC(=O)[C@H](C)NC(=O)[C@@H]1CSSC[C@H](NC(=O)[C@@H](N)CCCCNC(=O)COCCOCCNC(=O)CC[C@H](NC(=O)CCCCCCCCCCCCCCCCCCC(=O)O)C(=O)O)C(=O)N[C@@H](CC(N)=O)C(=O)N[C@@H]([C@@H](C)O)C(=O)N[C@@H](C)C(=O)N[C@@H]([C@@H](C)O)C(=O)N1)[C@@H](C)O)C(=O)N1CCC[C@H]1C(=O)N[C@@H](CO)C(=O)N[C@@H](CO)C(=O)N[C@H](C(=O)N1CCC[C@H]1C(=O)N[C@H](C(=O)NCC(=O)N[C@@H](CO)C(=O)N[C@@H](CC(N)=O)C(=O)N[C@H](C(=O)N[C@@H](Cc1ccc(O)cc1)C(N)=O)[C@@H](C)O)C(C)C)[C@@H](C)O
notes: also called compound 72

The target in one experiment is T1, human calcitonin receptor. The experiment can be described thus: SPA radioligand competition (125I-calcitonin), membranes of BHK cells with human calcitonin receptor. How it is done:
Membranes were prepared in the following way; the cells were rinsed with PBS and incubated with Versene for approximately 5 min before harvesting. The cells were flushed with PBS and the cell-suspension was centrifuged for 5 min at 1000 rpm. Cells were homogenized (Ultrathurrax) in a buffer containing 20 mM Na-HEPES and 10 mM EDTA (pH 7.4) and centrifuged at 20.000 rpm for 15 min. The resulting pellet was resuspended, homogenized and centrifuged (20.000 rpm, 15 min) in a buffer containing 20 mM Na-HEPES and 0.1 mM EDTA (pH 7.4, buffer 2). The resulting pellet was resuspended in buffer 2 and protein concentration was measured (BCA protein Assay, Pierce). The homogenate was kept cold during the whole procedure. The membranes were kept at −80° C. until use. Assay was performed in a 384 well Optiplate (PerkinElmer) in a total volume of 40 ul. Membranes were mixed with SPA beads. Final concentration of membranes 35 ng/μL final and Final concentration of SPA beads was 0.05 mg/well. Test-compounds were dissolved in DMSO and further diluted in assay buffer (50 mM Hepes, pH 7.4, 1 mM CaCl2, 5 mM MgCl₂, 0.1% OA and 0.02% Tween20). […] The final mixture was incubated for 120 min with shaking at 400 rpm at 25° C. prior to centrifugation (1500 rpm, 10 min). Samples were analyzed on TopCounter™ (Packard). The […] was calculated using (one site binding competition analysis) GraphPad Prism5 as a measure of receptor affinity.
The IC50 is the concentration at which inhibition is half-maximal. As to B1, the IC50 worked out at 6.74 nM.
The same measure, in the same setting: the figure for B2 is 36.5 nM; for B3 it is 88.8 nM.
For B4, the IC50 was 42.4 nM.

The target of a further experiment is T1, human calcitonin receptor. The experiment in a line: ratio of IC50 at human calcitonin receptor to IC50 at human amylin receptor (SPA competition assays). How it is done:
The resulting pellet was resuspended, homogenized and centrifuged (20.000 rpm, 15 min) in a buffer containing 20 mM Na-HEPES and 0.1 mM EDTA (pH 7.4, buffer 2). The resulting pellet was resuspended in buffer 2 and protein concentration was measured (BCA protein Assay, Pierce). The homogenate was kept cold during the whole procedure. The membranes were kept at −80° C. until use. The assay was performed in a 384 well Optiplate (PerkinElmer) in a total volume of 40 ul. Membranes were mixed with SPA beads. Final concentration of membranes 35 ng/μL final and SPA beads was 0.05 mg/well. Test-compounds were dissolved in DMSO and further diluted in assay buffer (50 mM Hepes, pH 7.4, 1 mM CaCl2, 5 mM MgCl₂, 0.1% OA and 0.02% Tween20). […] The final mixture was incubated with shaking at 400 rpm for 120 min at 25° C. prior to centrifugation (1500 rpm, 10 min). Samples were analyzed on TopCounter™ (Packard). The IC₅₀ was calculated using (one site binding competition analysis) GraphPad Prism5 as a measure of receptor affinity.
Membranes were prepared in the following way; the cells were rinsed with PBS and incubated with Versene for approximately 5 min before harvesting. The cells were flushed with PBS and the cell-suspension was centrifuged for 5 min at 1000 rpm. Cells were homogenized (Ultrathurrax) in a buffer containing 20 mM Na-HEPES and 10 mM EDTA (pH 7.4) and centrifuged at 20.000 rpm for 15 min. The resulting pellet was resuspended, homogenized and centrifuged (20.000 rpm, 15 min) in a buffer containing 20 mM Na-HEPES and 0.1 mM EDTA (pH 7.4, buffer 2). The resulting pellet was resuspended in buffer 2 and protein concentration was measured (BCA protein Assay, Pierce). The homogenate was kept cold during the whole procedure. The membranes were kept at −80° C. until use. Assay was performed in a 384 well Optiplate (PerkinElmer) in a total volume of 40 ul. Membranes were mixed with SPA beads.
With B1, the “Ratio hCT/hAmylin binding” value was 74.1.
On the same count and under the same terms, next, B2: 60.7; B3: 140.
On the same count and under the same terms, next, B4: 247.
